Measured values from publication doi:10.1101/2020.07.29.223594.

Legend:
[1] = target: T1, APOBEC2 (Mus musculus, UniProt Q9WV35 1-224); test: MST
T1 sequence: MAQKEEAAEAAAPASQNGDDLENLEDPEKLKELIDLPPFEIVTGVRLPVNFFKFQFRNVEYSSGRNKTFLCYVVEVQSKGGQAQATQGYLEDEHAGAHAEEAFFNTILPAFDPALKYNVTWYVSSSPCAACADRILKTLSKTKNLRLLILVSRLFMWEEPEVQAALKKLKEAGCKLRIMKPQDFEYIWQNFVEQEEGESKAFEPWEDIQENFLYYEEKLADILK

[2] = target: SP1 (Homo sapiens, UniProt P08047 2-785); test: EMSA
[3] = target: T1, APOBEC2; test: MST; remark: listed apart in the source

Sequence of SP1 (P08047 2-785): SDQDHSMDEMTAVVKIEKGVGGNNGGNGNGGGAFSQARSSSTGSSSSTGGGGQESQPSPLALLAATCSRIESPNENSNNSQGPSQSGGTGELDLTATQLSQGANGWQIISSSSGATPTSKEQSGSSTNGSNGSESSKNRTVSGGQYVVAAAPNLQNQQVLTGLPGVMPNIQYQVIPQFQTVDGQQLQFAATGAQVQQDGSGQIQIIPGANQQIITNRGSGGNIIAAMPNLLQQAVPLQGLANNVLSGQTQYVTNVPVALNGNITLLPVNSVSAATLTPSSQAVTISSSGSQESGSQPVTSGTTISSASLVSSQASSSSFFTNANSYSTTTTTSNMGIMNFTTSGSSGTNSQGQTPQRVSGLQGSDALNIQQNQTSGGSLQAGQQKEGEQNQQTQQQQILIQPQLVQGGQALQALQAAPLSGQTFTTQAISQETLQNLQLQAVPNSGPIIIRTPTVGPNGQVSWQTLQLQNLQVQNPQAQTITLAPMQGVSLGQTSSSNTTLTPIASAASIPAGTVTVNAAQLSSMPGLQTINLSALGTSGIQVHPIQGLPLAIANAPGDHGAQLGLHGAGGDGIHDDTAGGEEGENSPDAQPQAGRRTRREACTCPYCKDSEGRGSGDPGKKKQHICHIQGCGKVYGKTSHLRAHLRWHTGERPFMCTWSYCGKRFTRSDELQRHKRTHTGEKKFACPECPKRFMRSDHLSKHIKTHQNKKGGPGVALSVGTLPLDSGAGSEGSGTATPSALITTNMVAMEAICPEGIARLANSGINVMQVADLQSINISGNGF

B1: SP/KLF motif dsDNA (dsDNA)
DNA 1: GGCGGCGCGGCCCCGCCCCCTCCTCCGGC
DNA 2: GCCGGAGGAGGGGGCGGGGCCGCGCCGCC
Which Kd [1] does the source give for B1 here?
The Kd was 709 ± 186 nM.

Does B1 bind [2]?
Result: binds

B2: A-tract motif dsDNA (dsDNA)
DNA 1: TCTCAAGAAAAAAAAAAAAAGAC
DNA 2: GTCTTTTTTTTTTTTTCTTGAGA
Does B2 bind [3]?
Result: no binding
